Drawing on PMC5027616, “IL-13Rα2 uses TMEM219 in chitinase 3-like-1-induced signalling and effector responses” (Nature Communications, 2016), this text covers Kd for 1 molecule.

This assay concerns the target T1, IL-13Rα2-Chi3l1 complexes (labelled) (UniProt Q14627 27-343; P36222 22-383, BODPY-TRM-X-succinimidyl ester label).
T1 construct: IL-13 receptor alpha 2, ectodomain; as m13; chitinase 3-like-1; as m12; The legend calls the complexes labelled; also called IL-13Rα2 complexed with Chi3l1; source: both proteins from the baculovirus-insect cell expression system, purified; complex formed before the titration
In words: fluorescence polarisation; fluorescence anisotropy; serial dilutions of TMEM219 in 13 nm nanodisc (10 nM-10 μM) added to 10 nM labelled protein or complex; PBS for labelling; empty nanodisc as control. Particulars: both partners purified.

T1 sequence (Q14627 27-343, chain 1 of 2): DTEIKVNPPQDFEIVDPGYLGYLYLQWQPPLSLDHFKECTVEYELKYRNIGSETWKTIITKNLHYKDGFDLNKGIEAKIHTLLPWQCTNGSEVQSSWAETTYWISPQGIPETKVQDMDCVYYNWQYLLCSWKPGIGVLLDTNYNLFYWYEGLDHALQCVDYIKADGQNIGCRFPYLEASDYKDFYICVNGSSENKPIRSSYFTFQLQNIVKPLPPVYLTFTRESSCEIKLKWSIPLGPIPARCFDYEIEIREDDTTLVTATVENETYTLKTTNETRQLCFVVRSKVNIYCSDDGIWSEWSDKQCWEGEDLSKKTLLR
T1 sequence (P36222 22-383, chain 2 of 2): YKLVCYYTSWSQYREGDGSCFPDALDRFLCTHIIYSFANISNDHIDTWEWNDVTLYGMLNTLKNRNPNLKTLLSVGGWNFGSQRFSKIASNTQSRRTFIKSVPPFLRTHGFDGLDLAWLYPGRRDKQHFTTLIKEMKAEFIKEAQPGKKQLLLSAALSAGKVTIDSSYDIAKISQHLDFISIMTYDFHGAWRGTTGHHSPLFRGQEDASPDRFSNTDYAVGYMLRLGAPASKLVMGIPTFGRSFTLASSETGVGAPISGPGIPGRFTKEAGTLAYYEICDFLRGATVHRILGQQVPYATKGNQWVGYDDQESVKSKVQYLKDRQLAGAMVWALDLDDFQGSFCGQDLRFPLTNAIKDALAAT

B1: His-tagged human TMEM219 (natural protein, UniProt Q86XT9 39-240, looked up)
chain: SFLLTHRTGLRSPDIPQDWVSFLRSFGQLTLCPRNGTVTGKWRGSHVVGLLTTLNFGDGPDRNKTRTFQATVLGSQMGLKGSSAGQLVLITARVTTERTAGTCLYFSAVPGILPSSQPPISCSEEGAGNATLSPRMGEECVSVWSHEGLVLTKLLTSEELALCGSRLLVLGSFLLLFCGLLCCVTAMCFHPRRESHWSRTRL
notes: also called recombinant human (rh) TMEM219; rTMEM219; source: HEK293T cells (pcDNA3.1), purified (Nickel beads)
One may read the Kd as the free concentration of one partner at which half of the binding sites on the other are occupied at equilibrium, for simple one-to-one binding. A high value points to lower affinity. Regarding B1, the Kd is around 288 nM.
